This note sets out measurements from US20140134690A1, “MICROBES AND METHODS FOR PRODUCING 1-PROPANOL” (University of Georgia Research Foundation, Inc., priority 2012, published 2014).

Common to all, as to assay: cells, lysate or membranes named
The subject of data set [1] is O=C(CO)COP(=O)(O)O. Format: biochemical, C. difficile. The note with it: other: substrate dihydroxyacetone phosphate 0.15-1.5 mM, crude extract, imidazole-HCl pH 7.0, 30° C. The source says: (§1) 1,2-Propanediol pathway branches from glycolysis and competes for the intermediate dihydroxyacetone phosphate, with the glycolytic pathway. […] We amplified the mgsA genes from the microorganisms: C. acetobutylicum (ATCC#824), B. subtilis 168, C. difficile R20291, E. coli MG1655, T. thermophilus HB27, K. pneumoniae MGH78578, P. fluorescens Pf-5, and R. eutropha H16 respectively. These genes were cloned and expressed in wild type E. coli BW25113 using eight plasmids pRJ1-pRJ8. Each gene was under the control of the IPTG-inducible pLlacO1 promoter. Using dihydroxyacetone-phosphate as the substrate, we successfully detected the functional expression of all mgsA genes in vitro, where the specific activities varied from 0.0052 U/mg to 0.1242 U/mg (Table 1). […] Without the over-expression of mgsA gene, we also detected the native expression of E. coli mgsA, which gave a specific activity of only 0.0008 U/mg, much lower than that of any over-expression.
(§2) Using the primers listed in Table 5, the mgsA genes were PCR amplified from the genomic DNA of C. acetobutylicum (ATCC824), B. subtilis 168, Clostridium difficile R20291, E. coli MG1655, Thermus thermophilus HB27, K. pneumoniae MGH78578, Pseudomonas fluorescens Pf-5, and Ralstonia eutropha H16 respectively. […]
(§3) The assay was carried out using a two-step procedure. […] The samples were diluted 10 times before measuring the absorbance at 550 nm.

Data set [2] relates to O=C(CO)COP(=O)(O)O. Format: biochemical, E. coli. Particulars: other: substrate dihydroxyacetone phosphate 0.15-1.5 mM, crude extract, imidazole-HCl pH 7.0, 30° C.
Excerpt: as §1, §2, §3

For another data set, the system named is CC(=O)CO. The note with it: other: hydroxyacetone 20-120 mM, 0.25 mM NADH, crude extract, imidazole-HCl pH 7.0, 37° C.
A further data set concerns CC(=O)C=O. The note with it: other: methylglyoxal 20-120 mM, 0.25 mM NADH, crude extract, imidazole-HCl pH 7.0, 37° C.
For data set [3], the system named is O=C(CO)COP(=O)(O)O. Format: biochemical, K. pneumoniae. Particulars: other: substrate dihydroxyacetone phosphate 0.15-1.5 mM, crude extract, imidazole-HCl pH 7.0, 30° C.
Excerpt: as §1, §2, §3

With “Clostridium difficile R20291 methylglyoxal synthase (mgsA), wild type (Clostridioides difficile R20291)”, the Michaelis constant (Km) (in general, the concentration of substrate that gives half-maximal velocity) in the data set with O=C(CO)COP(=O)(O)O [1] is 1439 ± 60 µM. Consider “E. coli MG1655 methylglyoxal synthase (mgsA), wild type (Escherichia coli K-12)”, for which, in the data set with O=C(CO)COP(=O)(O)O [2], the Michaelis constant (Km) is 1418 ± 120 µM. “K. pneumoniae MGH78578 diol dehydrogenase (budC), wild type (Klebsiella pneumoniae subsp. pneumoniae MGH 78578)”: the Michaelis-Menten constant (Km) in the data set with CC(=O)CO was 1830 ± 630 µM; in the data set on CC(=O)C=O, 780 ± 30 µM. For “Klebsiella pneumoniae MGH78578 methylglyoxal synthase (mgsA), wild type (Klebsiella pneumoniae subsp. pneumoniae MGH 78578)”, the Km in the data set on O=C(CO)COP(=O)(O)O [3] was found to be 2820 ± 300 µM.
